Measured values reported in patent publication US20060141460A1, “Assays for fprl-1 ligands” (AstraZeneca A B, priority 2002, published 2006).
“And” between values parts separate entries of the source, which are not always exact repeats. Identical values can stand only once. Like-named read-outs stand apart in the source and are kept apart here. Where no end group is shown, it is not given here.

Assays:
[1] = target: T1, FPRL-1 (Homo sapiens, UniProt P25090); format: cell-based
T1 sequence (P25090 1-351): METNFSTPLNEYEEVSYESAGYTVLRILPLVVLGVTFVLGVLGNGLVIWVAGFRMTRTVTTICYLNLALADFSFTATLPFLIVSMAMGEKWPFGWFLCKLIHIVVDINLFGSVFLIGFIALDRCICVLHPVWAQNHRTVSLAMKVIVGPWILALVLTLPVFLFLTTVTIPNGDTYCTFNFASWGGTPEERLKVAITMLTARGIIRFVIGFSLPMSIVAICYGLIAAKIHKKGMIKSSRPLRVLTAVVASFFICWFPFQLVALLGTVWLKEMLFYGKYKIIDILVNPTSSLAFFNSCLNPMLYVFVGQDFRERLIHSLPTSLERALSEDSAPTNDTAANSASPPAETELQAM
Procedure: A stable receptor pool of FPRL-1 was developed by applying an antibiotic selection (G418, 1 mg/ml) and the cells were maintained in this selection medium.
A functional assay was performed with FLIPR (Fluorescent Imaging Plate Reader, Molecular Devices, Sunnyvale, Calif.) using the fluorescent calcium indicator Fluo-3 (Molecular Probes, Inc., Eugene, Oreg.) on a 96-well platform. […] On the day of the experiment, the FPRL-1-transfected cells were loaded with fluorescent solution (Dulbecco's modified medium containing 4 μM Fluo-3 and 20% pluronic acid). The cells were incubated at 37° C. for one hour in a humidified chamber. Following the incubation step, cells were washed five times in Hanks' with 20 mM Hepes and 0.1% BSA (pH 7.4). The cells were analyzed using the FLIPR system to measure the mobilization of intracellular calcium in response to different compounds.
Cell lines transiently expressing human FPRL-1 were stimulated with compounds, and calcium responses were compared to parental cells.

[2] = system: PMNs; assay: [Ca2+]i mobilization in PMNs (FLIPR); format: cell-based, human; conditions: n as in cell
Text: Neutrophils play a pivotal role in the innate immune response to infection. Since these cells express FPRL-1, we evaluated the effect of CKβ8-1 (aa46-137) on PMNs calcium mobilization using the FLIPR system.

[3] = target: human formyl peptide receptor-like-1 (FPRL-1) receptor (human) (UniProt P25090); assay: cell-based or functional assay
[4] = target: human formyl peptide receptor-like-1 (FPRL-1) receptor (human) (UniProt P25090); assay: displacement of [125I]-WKYMVm from membranes of CHO cells stably expressing FPRL-1 (n = 3)
[5] = target: T1, FPRL-1; assay: [125I]-W-peptide (WKYMVm) displacement on membranes from CHO cells stably expressing FPRL-1; format: binding
[6] = target: T1, FPRL-1; assay: Inhibition of forskolin-stimulated cAMP accumulation (adenylyl cyclase) in CHO cells expressing FPRL-1; format: cell-based; conditions: n as in cell
[7] = target: T1, FPRL-1; format: cell-based; remark: listed apart in the source
[8] = system: PMNs; assay: PMNs chemotaxis; format: cell-based, human
Procedure: The physiological relevance of CKβ8-1 (aa46-137) as a ligand for FPRL-1 was assessed by PMNs chemotaxis experiments.

[9] = target: human formyl peptide receptor-like-1 (FPRL-1) receptor (human) (UniProt P25090); assay: cell-based or functional assay; remark: listed apart in the source
[10] = calcium mobilization, cells co-expressing Gα16 and FPRL-1
[11] = CHO cells co-expressing Gα16 and FPRL-1, mean±s.e. mean

LWRRKIGPQMTLSHAAG [SHAAG peptide]
EC50 ([1]; Intracellular Ca2+ mobilization pEC50 (n = 3), CHO cells co-expressing Gα16 and FPRL-1, mean±s.e. mean): 182 nM
times less potent at FPRL-1 as compared to CKβ8-1 (aa46-137) [1, 10]: 60 to 200 times
times more potent than the long form CKβ8-1(aa22-137) [1, 10]: ~120 times

IL-8: known to activate CXCR1 and CXCR2 receptors
pEC50 [2]: 8.76 ± 0.24 (n = 3)

Human Prion protein (hPrP) (from UniProt P04156 106-126)
Intracellular Ca2+ mobilization pEC50 (n = 3), CHO cells (-log of the EC50) [3]: < 6

recombinant human CKβ8-1 (aa46-137) (from UniProt P55773 46-137) (ligand)
Adenylyl cylase pIC50 (inhibition of forskolin-stimulated cAMP accumulation), CHO cells (-log of the IC50) [3]: 9.02
EC50, intracellular calcium mobilization (FLIPR), CHO cells transiently expressing hFPRL-1 in Gα16 background, n = 1 [3]: 0.69 nM
EC50, intracellular calcium mobilization (FLIPR), CHO cells transiently expressing hFPRL-1 in Gα16 background, n = 2 [3]: 0.14 nM
EC50, intracellular calcium mobilization (FLIPR), CHO cells transiently expressing hFPRL-1 in Gαqi5 background, n = 1 [3]: 2.9 nM
EC50, intracellular calcium mobilization (FLIPR), CHO cells transiently expressing hFPRL-1 in Gαqi5 background, n = 2 [3]: 2.5 nM
Emax, intracellular calcium mobilization (FLIPR), CHO cells transiently expressing hFPRL-1 in Gα16 background, n = 1 [3]: 4120 RFU
Emax, intracellular calcium mobilization (FLIPR), CHO cells transiently expressing hFPRL-1 in Gα16 background, n = 2 [3]: 6330 RFU
Emax, intracellular calcium mobilization (FLIPR), CHO cells transiently expressing hFPRL-1 in Gαqi5 background, n = 1 [3]: 4600 RFU
Emax, intracellular calcium mobilization (FLIPR), CHO cells transiently expressing hFPRL-1 in Gαqi5 background, n = 2 [3]: 5950 RFU
Intracellular Ca2+ mobilization pEC50 (n = 3), CHO cells (-log of the EC50) [3]: 9.13
concentration giving the maximum percentage of cell migration, PMN chemotaxis [3]: 1 µM
pEC50, [Ca2+]i mobilization in PMNs (-log of the EC50) [3]: 7.42
pIC50 (-log of the IC50) [4]: 7.97

MMK-1 (peptide)
concentration giving the maximum percentage of cell migration, PMN chemotaxis [3]: 12 µM
pEC50, [Ca2+]i mobilization in PMNs (-log of the EC50) [3]: 7.17

CKβ8 (aa46-120) (from UniProt P55773 46-120) (ligand)
Intracellular Ca2+ mobilization pEC50 (n = 3), CHO cells (-log of the EC50) [3]: < 5

CKβ8 (aa22-120) (from UniProt P55773 22-120) (ligand)
Intracellular Ca2+ mobilization pEC50 (n = 3), CHO cells (-log of the EC50) [3]: < 5

SHAAG peptide
Intracellular Ca2+ mobilization pEC50 (n = 3), CHO cells (-log of the EC50) [3]: 6.74
fold higher potency than CKβ8-1 (aa22-137), calcium mobilization [3]: 120 fold
fold lower potency than CKβ8-1 (aa46-137), calcium mobilization [3]: 60 to 200 fold

CCCCC[C@H](O)/C=C/C=C\C=C\C=C\[C@@H](O)[C@@H](O)CCCC(=O)O [Lipoxin A4 (LXA4), Lipoxin A4]
[125I]-W-peptide (WKYMVm) Displacement pIC50 (n = 3) [5]: inactive
Intracellular Ca2+ mobilization pEC50 (n = 3) [1, 11]: <6.0
pEC50 [2]: inactive (n = 4)
Adenylyl cylase pIC50 [6]: <5.7 (n = 2)

CKβ8-1 (aa22-137) (from UniProt P55773 22-137) (ligand)
Intracellular Ca2+ mobilization pEC50 (n = 3), CHO cells (-log of the EC50) [3]: < 5.7
fold lower potency at FPRL-1 than at CCR1, calcium mobilization [3]: 200 to 300 fold

MIP-1α: ligand tested in PMNs
pEC50 [2]: inactive (n = 4)

CSCC[C@H](NC(=O)[C@@H](NC(=O)[C@H](CCSC)NC(=O)[C@H](Cc1ccc(O)cc1)NC(=O)[C@H](CCCCN)NC(=O)[C@@H](N)Cc1c[nH]c2ccccc12)C(C)C)C(N)=O [W-peptide]
calcium response ([7]; CHO cells transiently expressing FPRL-1, absence of Gα16): consistent calcium response
effect of pertussis toxin (PTX) pre-treatment on ligand-induced Ca2+ response ([7]; CHO-K1 transiently expressing FPRL-1, PTX pre-treatment): completely abolished
concentration at which the maximum percentage of cell migration was reached [8]: 100 nM

B1: Serum Amyloid A protein (SAA) (ligand, UniProt P0DJI8 19-122, looked up, species assumed)
Serum amyloid A-1 protein: RSFFSFLGEAFDGARDMWRAYSDMREANYIGSDKYFHARGNYDAAKRGPGGAWAAEVITDARENIQRFFGHGAEDSLADQAANEWGRSGKDPNHFRPAGLPEKY
[125I]-W-peptide (WKYMVm) Displacement pIC50 (n = 3) [5]: <5.52
[125I]-W-peptide (WKYMVm) Displacement pIC50 (n = 3) ([5]; listed as SAA): < 5.52
Intracellular Ca2+ mobilization pEC50 (n = 3) [1, 11]: 6.88 ± 0.07
Adenylyl cylase pIC50 (inhibition of forskolin-stimulated cAMP accumulation), CHO cells (-log of the IC50) [9]: 6.38 and 6.48
Intracellular Ca2+ mobilization pEC50 (n = 3), CHO cells (-log of the EC50) [9]: 6.88
pEC50, [Ca2+]i mobilization in PMNs (-log of the EC50) [9]: < 5.7
pEC50 [2]: <5.7 (n = 3)
Adenylyl cylase pIC50 [6]: 6.38 and 6.48
